The record followed here is patent US20230365675A1 (published 2023).

The target of one assay is CD33 on MOLM-13 cells (human, UniProt P20138 18-364). Briefly: cell-based or functional assay.
Assay [1] addresses Biotinylated CD33 protein (UniProt P20138). The experiment in a line: Octet competition on biotinylated CD33; competitor 430. On the technique in general: In BLI a coated tip is dipped into the sample, and binding shifts an interference pattern.
For assay [2], the target named is CD33-GFP fusion protein, wild type (WT), on 293FT cells (UniProt P20138). Briefly: FACS, WT CD33-GFP on 293FT cells.
CD33-GFP fusion protein, wild type (WT), on 293FT cells, sequence (P20138 18-364): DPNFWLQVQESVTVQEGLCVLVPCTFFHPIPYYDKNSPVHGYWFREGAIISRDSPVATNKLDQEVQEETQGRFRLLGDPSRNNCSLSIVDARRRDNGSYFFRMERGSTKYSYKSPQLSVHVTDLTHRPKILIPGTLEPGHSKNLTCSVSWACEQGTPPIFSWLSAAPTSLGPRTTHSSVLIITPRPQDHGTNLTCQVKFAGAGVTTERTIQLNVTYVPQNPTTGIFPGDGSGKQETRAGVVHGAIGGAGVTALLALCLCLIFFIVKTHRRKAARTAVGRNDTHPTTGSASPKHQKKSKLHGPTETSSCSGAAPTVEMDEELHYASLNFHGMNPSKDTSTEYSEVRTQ
In assay [3] the target is Biotinylated CD33 protein (UniProt P20138). The experiment in a line: Octet competition on biotinylated CD33; competitor 424.
Biotinylated CD33 protein, sequence (P20138 18-259 limits assumed): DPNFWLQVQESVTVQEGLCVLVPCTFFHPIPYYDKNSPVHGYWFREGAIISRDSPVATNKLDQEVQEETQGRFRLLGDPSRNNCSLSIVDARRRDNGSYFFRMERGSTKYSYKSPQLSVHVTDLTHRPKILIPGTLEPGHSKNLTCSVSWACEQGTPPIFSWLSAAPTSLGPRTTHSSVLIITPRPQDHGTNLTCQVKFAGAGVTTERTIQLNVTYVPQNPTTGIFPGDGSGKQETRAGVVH
The target is the same in assay [4]. Briefly: Octet competition on biotinylated CD33; competitor 429.
Assay [5] has the same target. The experiment in a line: Octet competition on biotinylated CD33; competitor 389.
The target is the same in assay [6]. The experiment in a line: Octet competition on biotinylated CD33; competitor h195.
Assay [7] has the same target. The experiment in a line: Octet competition on biotinylated CD33; competitor 426.
Assay [8] has the same target. Briefly: Octet competition on biotinylated CD33; competitor 416.
In assay [9] the target is Mutant CD33-GFP JS23 (L23N) on 293FT cells (UniProt P20138). The experiment in a line: FACS, mutant CD33-GFP on 293FT cells. (In general: A flow cytometer gives signals particle by particle.)
Mutant CD33-GFP JS23 (L23N) on 293FT cells, sequence (P20138 18-364 L23N): as the sequence (P20138 18-364) above, with L6N counted along it
For assay [10], the target named is Mutant CD33-GFP M18 (353AAL) on 293FT cells (UniProt P20138). Briefly: FACS, mutant CD33-GFP on 293FT cells.
For assay [11], the target named is Mutant CD33-GFP M11 (L78T) on 293FT cells (UniProt P20138). Briefly: FACS, mutant CD33-GFP on 293FT cells.
Mutant CD33-GFP M11 (L78T) on 293FT cells, sequence (P20138 18-364 L78T): as the sequence (P20138 18-364) above, with L61T counted along it
Assay [12] addresses Mutant CD33-GFP M4 (R122D) on 293FT cells (UniProt P20138). The experiment in a line: FACS, mutant CD33-GFP on 293FT cells.
The target of assay [13] is Mutant CD33-GFP JS25 (V25M) on 293FT cells (UniProt P20138). Briefly: FACS, mutant CD33-GFP on 293FT cells.
Mutant CD33-GFP JS25 (V25M) on 293FT cells, sequence (P20138 18-364 V25M): as the sequence (P20138 18-364) above, with V8M counted along it
Assay [14] addresses Mutant CD33-GFP M5 (AEAD), quadruple mutant, on 293FT cells (UniProt P20138). Briefly: FACS, mutant CD33-GFP on 293FT cells.
Assay [15] concerns the target Mutant CD33-GFP M16 (4889AII) on 293FT cells (UniProt P20138). The experiment in a line: FACS, mutant CD33-GFP on 293FT cells.
Assay [16] addresses Mutant CD33-GFP M13 (R91E) on 293FT cells (UniProt P20138). Briefly: FACS, mutant CD33-GFP on 293FT cells.
Assay [17] has as its target Mutant CD33-GFP M9 (Y49, 50A) on 293FT cells (UniProt P20138). Briefly: FACS, mutant CD33-GFP on 293FT cells.
Assay [18] concerns the target Mutant CD33-GFP M17 (F21Y) on 293FT cells (UniProt P20138). Briefly: FACS, mutant CD33-GFP on 293FT cells.
The target of assay [19] is Mutant CD33-GFP M14 (E170R) on 293FT cells (UniProt P20138). Briefly: FACS, mutant CD33-GFP on 293FT cells.
Mutant CD33-GFP M14 (E170R) on 293FT cells, sequence (P20138 18-364 E170R): as the sequence (P20138 18-364) above, with E153R counted along it
Assay [20] concerns the target Mutant CD33-GFP N20D on 293FT cells (UniProt P20138). The experiment in a line: FACS, mutant CD33-GFP on 293FT cells.
The target of assay [21] is Mutant CD33-GFP JS24 (Q24E) on 293FT cells (UniProt P20138). The experiment in a line: FACS, mutant CD33-GFP on 293FT cells.
Mutant CD33-GFP JS24 (Q24E) on 293FT cells, sequence (P20138 18-364 Q24E): as the sequence (P20138 18-364) above, with Q7E counted along it
The target of assay [22] is Mutant CD33-GFP JS28 (S28L) on 293FT cells (UniProt P20138). The experiment in a line: FACS, mutant CD33-GFP on 293FT cells.
Mutant CD33-GFP JS28 (S28L) on 293FT cells, sequence (P20138 18-364 S28L): as the sequence (P20138 18-364) above, with S11L counted along it
The target in assay [23] is Mutant CD33-GFP M15 (Q171A) on 293FT cells (UniProt P20138). The experiment in a line: FACS, mutant CD33-GFP on 293FT cells.
Mutant CD33-GFP M15 (Q171A) on 293FT cells, sequence (P20138 18-364 Q171A): as the sequence (P20138 18-364) above, with Q154A counted along it
The target of assay [24] is Mutant CD33-GFP M12 (G88S) on 293FT cells (UniProt P20138). The experiment in a line: FACS, mutant CD33-GFP on 293FT cells.
Mutant CD33-GFP M12 (G88S) on 293FT cells, sequence (P20138 18-364 G88S): as the sequence (P20138 18-364) above, with G71S counted along it
The target in assay [25] is Mutant CD33-GFP M10 (Y127A) on 293FT cells (UniProt P20138). The experiment in a line: FACS, mutant CD33-GFP on 293FT cells.
Mutant CD33-GFP M10 (Y127A) on 293FT cells, sequence (P20138 18-364 Y127A): as the sequence (P20138 18-364) above, with Y110A counted along it
Assay [26] addresses Mutant CD33-GFP M19 (348ATAI) on 293FT cells (UniProt P20138). Briefly: FACS, mutant CD33-GFP on 293FT cells.
The target of assay [27] is Biotinylated CD33 protein (UniProt P20138). Briefly: Octet competition on biotinylated CD33; competitor 413.
Assay [28] has the same target. The experiment in a line: Octet competition on biotinylated CD33; competitor 353.
The target is the same in assay [29]. The experiment in a line: Octet competition on biotinylated CD33; competitor 420.
Assay [30] concerns the target T1, Mutant CD33-GFP M7 (R98D) on 293FT cells (UniProt P20138 18-364).
T1 construct: whole, on cells; not shown: GFP fused to CD33
The experiment in a line: FACS, mutant CD33-GFP on 293FT cells.

Assay [31] has as its target T2, Mutant CD33-GFP M6 (F43N) on 293FT cells (UniProt P20138 18-364).
T2 construct: whole, on cells; not shown: GFP fused to CD33
The experiment in a line: FACS, mutant CD33-GFP on 293FT cells.

Assay [32] deals with T3, Mutant CD33-GFP M8 (K52A) on 293FT cells (UniProt P20138 18-364).
T3 construct: whole, on cells; not shown: GFP fused to CD33
T3 sequence (P20138 18-364 K52A): as the sequence (P20138 18-364) above, with K35A counted along it
Briefly: FACS, mutant CD33-GFP on 293FT cells.

Assay [33] concerns the target T4, Mutant CD33-GFP M2 (H45E) on 293FT cells (UniProt P20138 18-364).
T4 construct: whole, on cells; not shown: GFP fused to CD33
The experiment in a line: FACS, mutant CD33-GFP on 293FT cells.

The target of assay [34] is T5, Mutant CD33-GFP M1 (W22A) on 293FT cells (UniProt P20138 18-364).
T5 construct: whole, on cells; not shown: GFP fused to CD33
T5 sequence (P20138 18-364 W22A): as the sequence (P20138 18-364) above, with W5A counted along it
The experiment in a line: FACS, mutant CD33-GFP on 293FT cells.

The target in assay [35] is T6, Mutant CD33-GFP M3 (N99A) on 293FT cells (UniProt P20138 18-364).
T6 construct: whole, on cells; not shown: GFP fused to CD33
T6 sequence (P20138 18-364 N99A): as the sequence (P20138 18-364) above, with N82A counted along it
Briefly: FACS, mutant CD33-GFP on 293FT cells.

CD33 on MOLM-13 cells, sequence (P20138 18-364): as the sequence (P20138 18-364) above
Mutant CD33-GFP N20D on 293FT cells, sequence (P20138 18-364 N20D): as the sequence (P20138 18-364) above, with N3D counted along it
Mutant CD33-GFP M9 (Y49, 50A) on 293FT cells, sequence (P20138 other isoform, or with tags, fused parts or gaps mutant): as the sequence (P20138 18-364) above, with Y32A, Y33A counted along it
Mutant CD33-GFP M4 (R122D) on 293FT cells, sequence (P20138 18-364 R122D): as the sequence (P20138 18-364) above, with R105D counted along it
T2 sequence (P20138 18-364 F43N): as the sequence (P20138 18-364) above, with F26N counted along it
Mutant CD33-GFP M17 (F21Y) on 293FT cells, sequence (P20138 18-364 F21Y): as the sequence (P20138 18-364) above, with F4Y counted along it
T1 sequence (P20138 18-364 R98D): as the sequence (P20138 18-364) above, with R81D counted along it
Mutant CD33-GFP M5 (AEAD), quadruple mutant, on 293FT cells, sequence (P20138 other isoform, or with tags, fused parts or gaps mutant): as the sequence (P20138 18-364) above, with W5A, H28E, N82A, R105D counted along it
T4 sequence (P20138 18-364 H45E): as the sequence (P20138 18-364) above, with H28E counted along it
Mutant CD33-GFP M13 (R91E) on 293FT cells, sequence (P20138 18-364 R91E): as the sequence (P20138 18-364) above, with R74E counted along it

B1: Anti-CD33-CAR5 (other)
chain: QVKLEESGGGSVQAGESLRLSCTASGITFRDYDIDWYRQAPGKEREWLATITPSGTTHYPDSVKGRATISRDSAKNTVYLQMNSLKPEDTARYECNTLAYWGSGTQVTVSSAAATTTPAPRPPTPAPTIASQPLSLRPEACRPAAGGAVHTRGLDFACDIYIWAPLAGTCGVLLLSLVITLYCKRGRKKLLYIFKQPFMRPVQTTQEEDGCSCRFPEEEEGGCELRVKFSRSADAPAYQQGQNQLYNELNLGRREEYDVLDKRRGRDPEMGGKPRRKNPQEGLYNELQKDKMAEAYSEIGMKGERRRGKGHDGLYQGLSTATKDTYDALHMQALPPR
Consider B1, for which, in the assay with CD33 on MOLM-13 cells, the Ratio was determined as 8.5 and the “Testing FP2 Expression (CD33+)” value is 28.2 % of constitutive-fluorescence-positive cells.

B2: sdCD33_2 (VHH)
VHH: QVQLVQPGGSLRLFCVASEEFFSIYAMGWYRQAPGKQHEMVARFTRDGKITYADSAKGRFTITRDAKNTLNLQMNGLIPEDTAVYYCNINHYWGQGTQVTVSS
Consider B2, for which the Octet signal came to 0.651 in [1]; 0.0143 in assay [3]; 0.0422 in assay [4]; 0.584 in assay [5]; 0.799 in assay [6]; 0.158 in [7]. In addition, the Octet signal in [8] is 0.0635; in assay [27], 0.623; in assay [28] it was 0.322; in assay [29] it was 0.381. Moreover, the FACS binding data is 98.3 in assay [2]; 95.4 in assay [9]; 97.3 in [10]; 33.4 in assay [11]; 1.43 in assay [12]; 99.3 in [13]. Further, the FACS binding data in assay [14] is 0.41; in [15] it was 98.4; in assay [16] it was 98.6; in assay [17], 0.39; in assay [18], 98.9; in [19], 98.2. In addition, the FACS binding data in [20] stood at 98.9; in assay [21] it was 98.8; in [22], 99.5; in assay [23] it was 98.7; in [24] it was 98.2; in assay [25] it was 98.5. The FACS binding data in assay [26] was found to be 99; in assay [30], 0.48; in assay [31], 95.3; in [32], 91.2; in assay [33] it was 2.54; in [34] it was 8.08. Moreover, the FACS binding data in assay [35] was 81.9.

B3: Anti-CD33 CAR 7 (other)
chain: MELGLSWVVLAALLQGVQAQVQLVQPGGSLRLFCVASEEFFSIYAMGWYRQAPGKQHEMVARFTRDGKITYADSAKGRFTITRDAKNTLNLQMNGLIPEDTAVYYCNINHYWGQGTQVTVSSAAATTTPAPRPPTPAPTIASQPLSLRPEACRPAAGGAVHTRGLDFACDIYIWAPLAGTCGVLLLSLVITLYCKRGRKKLLYIFKQPFMRPVQTTQEEDGCSCRFPEEEEGGCELRVKFSRSADAPAYQQGQNQLYNELNLGRREEYDVLDKRRGRDPEMGGKPRRKNPQEGLYNELQKDKMAEAYSEIGMKGERRRGKGHDGLYQGLSTATKDTYDALHMQALPPR
Take B3: in the assay with CD33 on MOLM-13 cells, the Ratio was determined as 1.98 and the “Testing FP2 Expression (CD33+)” value was 17.6 % of constitutive-fluorescence-positive cells.

B4: Anti-CD33 CAR 6 (other)
chain: QVQLVETGGGLVRAGGSLRLSCAASGRTADIYNIGWFRQAPGKEREFVAAITWIGRTPYYADAVKGRFAFSTDSAKNTVSLQMDNLKPEDTGVYYCNAAHYLEGNTDYYWGQGTQVTVSSAAATTTPAPRPPTPAPTIASQPLSLRPEACRPAAGGAVHTRGLDFACDIYIWAPLAGTCGVLLLSLVITLYCKRGRKKLLYIFKQPFMRPVQTTQEEDGCSCRFPEEEEGGCELRVKFSRSADAPAYQQGQNQLYNELNLGRREEYDVLDKRRGRDPEMGGKPRRKNPQEGLYNELQKDKMAEAYSEIGMKGERRRGKGHDGLYQGLSTATKDTYDALHMQALPPR
B4: in the assay with CD33 on MOLM-13 cells, the Ratio is 3.6 and the “Testing FP2 Expression (CD33+)” value was 22.9 % of constitutive-fluorescence-positive cells.
